Source: PMC3859847 (Biochemistry, 2013)

T1: rat liver glucokinase regulatory protein (rat, UniProt Q07071 1-627)
T1 sequence: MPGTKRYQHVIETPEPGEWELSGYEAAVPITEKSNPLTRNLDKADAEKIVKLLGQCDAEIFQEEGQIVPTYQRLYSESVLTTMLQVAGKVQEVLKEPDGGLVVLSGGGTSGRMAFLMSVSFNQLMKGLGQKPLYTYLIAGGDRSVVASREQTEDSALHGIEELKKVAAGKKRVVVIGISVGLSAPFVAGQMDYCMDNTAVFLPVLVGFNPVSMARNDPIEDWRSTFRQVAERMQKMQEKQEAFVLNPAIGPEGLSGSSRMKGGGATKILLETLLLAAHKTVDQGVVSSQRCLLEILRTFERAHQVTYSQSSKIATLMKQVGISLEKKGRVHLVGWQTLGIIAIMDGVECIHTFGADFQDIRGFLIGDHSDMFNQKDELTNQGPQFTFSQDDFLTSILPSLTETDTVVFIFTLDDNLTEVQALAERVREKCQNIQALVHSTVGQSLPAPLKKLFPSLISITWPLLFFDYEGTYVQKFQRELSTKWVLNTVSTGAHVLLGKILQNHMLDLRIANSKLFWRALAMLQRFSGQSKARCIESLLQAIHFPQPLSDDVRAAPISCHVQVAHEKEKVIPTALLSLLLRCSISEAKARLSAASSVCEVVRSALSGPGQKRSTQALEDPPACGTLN


What was measured:
[1] = target: Glucokinase (Homo sapiens) (UniProt P35557); settings: cited from earlier work
[2] = target: T1, rat liver glucokinase regulatory protein; assay: crystal structure

Row | Molecule | Kd [1] | binding result [2]
1 | GKRP (from UniProt Q07071) | 1000 nM | 
2 | human pancreatic glucokinase (enzyme) DDRARMEAAKKEKVEQILAEFQLQEEDLKKVMRRMQKEMDRGLRLETHEEASVKMLPTYVRSTPEGSEVGDFLSLDLGGTNFRVMLVKVGEGEEGQWSVKTKHQMYSIPEDAMTGTAEMLFDYISECISDFLDKHQMKHKKLPLGFTFSFPVRHEDIDKGILLNWTKGFKASGAEGNNVVGLLRDAIKRRGDFEMDVVAMVNDTVATMISCYYEDHQCEVGMIVGTGCNACYMEEMQNVELVEGDEGRMCVNTEWGAFGDSGELDEFLLEYDRLVDESSANPGQQLYEKLIGGKYMGELVRLVLLRLVDENLLFHGEASEQLRTRGAFETRFVSQVESDTGDRKQIYNILSTLGLRPSTTDCDIVRRACESVSTRAAHMCSAGLAGVINRMRESRSEDVMRITVGVDGSVYKLHPSFKERFHASVRRLTPSCEITFIESEEGSGRGAALVSAVACKKACMLGQ |  | binds
